Measured values from US11926678B2, “Composite polypeptide having a metal binding motif and molecular construct comprising the same” (Immunwork Inc., priority 2020, dated 2024).

T1: human CD19 on human B lymphoma cell line Raji (Homo sapiens, UniProt P15391)
T1 construct: incubating 1×10^6 CD19-expressing Raji cells with 0.001 μg/ml of each construct; endogenous in cells; host or cells: Raji (human B lymphoma cell line)
T1 sequence (P15391 20-556): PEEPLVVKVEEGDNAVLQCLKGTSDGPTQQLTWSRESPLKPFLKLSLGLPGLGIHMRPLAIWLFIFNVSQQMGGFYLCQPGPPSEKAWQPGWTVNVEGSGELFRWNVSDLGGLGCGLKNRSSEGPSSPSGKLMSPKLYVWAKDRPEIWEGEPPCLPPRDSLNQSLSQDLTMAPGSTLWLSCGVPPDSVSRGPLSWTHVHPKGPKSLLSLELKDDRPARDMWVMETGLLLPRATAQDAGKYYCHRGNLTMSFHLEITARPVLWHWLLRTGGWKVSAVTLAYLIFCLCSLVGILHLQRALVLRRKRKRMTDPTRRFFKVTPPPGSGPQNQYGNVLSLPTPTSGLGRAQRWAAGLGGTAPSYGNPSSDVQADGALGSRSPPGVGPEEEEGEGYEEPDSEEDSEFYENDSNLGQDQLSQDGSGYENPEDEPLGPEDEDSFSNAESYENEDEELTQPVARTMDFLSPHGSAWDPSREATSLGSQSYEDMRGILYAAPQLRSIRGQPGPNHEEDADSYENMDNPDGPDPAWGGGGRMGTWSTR

T2: human CD19 on human B lymphoma cell lines Ramos (Homo sapiens, UniProt P15391)
T2 construct: two molecular constructs containing MBM-1 and MBM-3 on CD19-expressing Ramos cells; endogenous in cells; host or cells: Ramos (human B lymphoma cell line)
T2 sequence (P15391 20-556): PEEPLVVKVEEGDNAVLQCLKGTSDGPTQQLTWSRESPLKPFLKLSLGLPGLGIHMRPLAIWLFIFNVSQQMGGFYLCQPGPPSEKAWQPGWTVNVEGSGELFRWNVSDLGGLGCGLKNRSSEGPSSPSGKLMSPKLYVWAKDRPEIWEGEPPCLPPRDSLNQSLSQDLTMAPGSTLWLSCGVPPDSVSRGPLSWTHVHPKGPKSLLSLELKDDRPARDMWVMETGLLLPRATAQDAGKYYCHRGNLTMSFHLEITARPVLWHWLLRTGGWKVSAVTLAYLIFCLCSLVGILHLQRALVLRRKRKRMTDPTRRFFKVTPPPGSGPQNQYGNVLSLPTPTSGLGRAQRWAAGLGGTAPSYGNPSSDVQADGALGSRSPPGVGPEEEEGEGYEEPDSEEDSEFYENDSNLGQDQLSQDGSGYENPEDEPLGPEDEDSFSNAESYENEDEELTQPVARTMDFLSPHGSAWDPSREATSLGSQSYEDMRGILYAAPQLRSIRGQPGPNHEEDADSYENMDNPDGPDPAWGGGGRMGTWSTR


Tests used:
[1] = biological target: T1, human CD19 on human B lymphoma cell line Raji; test: Cell staining (FACS) binding to CD19-expressing Raji cells; format: cell-based; conditions: 0.001 μg/ml, on ice 30 minutes
Description: (§1) Two stabilized molecular constructs, (scFv α CD19)-Fc-MBM-1×2 DOTA bundles and (scFv α CD19)-Fc-MBM-3×2 DOTA bundles, were analyzed for their ability to bind to human CD19 on human B lymphoma cell line Raji. The assay was performed by incubating 1×10^6 CD19-expressing Raji cells with 0.001 μg/ml of each construct in PBS, 1% BSA on ice for 30 minutes, using anti-CD19 antibody (RB4v1.2), (scFv α CD19)-Fc-MBM-1×2 DOTA bundles and (scFv α CD19)-Fc-MBM-3×2 DOTA bundles as positive controls. The anti-HER2 antibody (trastuzumab) was used as a negative control. The staining of cells was analyzed by FACS (FACSCanto II; BD Biosciences) using FITC-conjugated goat anti-human IgG.Fc (diluted 1:200 in PBS/BSA) (Caltag, Buckingham, UK) at 4° C. for 20 minutes in the dark.

[2] = tested on: CD19-expressing tumors (Raji xenograft); test: IVIS imaging of targeting to CD19-expressing xenograft tumor; format: in vivo, NOD-SCID mice
Excerpt: In this Example, in vivo imaging system (IVIS) was used to investigate the targeting effect of the stabilized 2-chain (scFv α CD19)-Fc-MBM-1×2 DOTA bundles to CD19-expressing tumors in mouse xenograft model. Prior to IVIS imaging, a Dylight 680 Antibody Labeling Kit (Thermo Scientific) was used to conjugate the stabilized 2-chain (scFv α CD19)-Fc-MBM-1×2 DOTA bundles from Example 19 and the anti-CD19 antibody (RB4v1.2), according to the manufacturer's instructions.
8 to 10-week-old NOD-SCID (NOD.CB17-Prkdc^scid/JNarl) were purchased from Laboratory Animal Facility of Institute of Cellular and Organismic Biology, Academia Sinica, Taipei, Taiwan. The mice were injected intraperitoneally with 1×10^7 B-cell lymphoma Raji cells per mouse 2 weeks before the treatment. The mice were grouped into three mice per group, and were injected intravenously with about 200 μL of 6.65 μM labeled molecule. At various time points, mice were anaesthetized with isoflurane in O2 and placed in the IVIS Spectrum In Vivo Imaging System (PerkinElmer) with a supine position. […] Images were captured at indicated time points using IVIS Spectrum imager and analyzed with Living Image software.
Fluorescent images from NOD-SCID mice were captured and analyzed at 0 hour, 24 hours, 48 hours, and 72 hours after the administration of DyLight 680-conjugated proteins. […]

[3] = tested on: CD19-expressing tumors (Raji xenograft); test: Biodistribution by tissue ELISA in CD19-expressing xenograft tumor model; format: in vivo, NOD-SCID mice; conditions: day 7 after i.v. injection
Description: For biodistribution analysis of the stabilized (scFv α CD19)-Fc-MBM-1×2 DOTA bundles in xenograft mouse model, the procedure set forth in Example 32 was used with some modifications.
Briefly, the mice were injected subcutaneously with 1×10^7 B-cell lymphoma Raji cells per mouse 2 to 3 weeks before the treatment. The mice were grouped into three mice per group, and were injected intravenously with about 200 μL of 6.65 μM labeled molecule.
Biodistribution of NOD-SCID mice were analyzed by tissue ELISA at 7 days after the administration of the stabilized 2-chain (scFv α CD19)-Fc-MBM-1×2 DOTA bundles and the anti-CD19 antibody. Briefly, the animals were sacrificed at day 7 after injection. Blood was hemospasia from the heart, and tissue samples from 11 organs were collected. Tissues samples were homogenized using homogenizer and analyzed further for measuring the concentration of the injected molecules by ELISA.

[4] = Examination of retro-Michael addition product, Western blot; format: in vitro ADME; conditions: 37° C., 30 days, compared with stock at 4° C.
Description: A further confirmation of the stability of the 2-chain (scFv α CD19)-Fc-MBM-1×2 DOTA bundles, the stabilized molecular construct was incubated with glutathione or HSA and then analyzed using Western blot.
For the western blot analysis of the stabilized samples, briefly, the samples were separated on 8% SDS-PAGE gels and transferred to a poly(vinylidene fluoride) (PVDF) membrane (Millipore). The membrane blots were blocked in PBS containing 5% BSA and 0.05% Tween 20 for 1 hour at room temperature. After washing 3 times with phosphate buffered saline tween-20 (PBST) containing PBS and 0.05% Tween-20, the blots were incubated with goat anti-human IgG.Fc antibody conjugated with horseradish peroxidase (Millipore). Then the membranes were washed 3 times with PBST, and immunoreacted bands were detected using ECL™ western blotting detection reagents (Millipore) and exposed on Fujifilm (Tokyo, Japan).

[5] = Stability with glutathione or human serum albumin, SDS-PAGE; format: in vitro ADME; conditions: 37° C., 30 days
Description: To evaluate the stability of the stabilized 2-chain (scFv α CD19)-Fc-MBM-1×2 DOTA bundles, the molecular constructs were placed in Tris buffer (100 mM Tris buffer at pH 7.3, 50 mM Bis-Tris buffer, and 290 mM NaCl) with glutathione or human serum albumin, and then incubated at 37° C. for 30 days.

[6] = Half-life in BALB/c mice after i.v. administration (serum ELISA); format: in vivo; conditions: about 200 μL of 3.33 μM protein
Description: The measurement of half-lives of the stabilized 2-chain (scFv α CD19)-Fc-MBM-1×2 DOTA bundles was carried out in mice after i.v. administration. The (scFv α CD19)-Fc-MBM-1×2 DOTA bundles in the serum sample was observed using ELISA. 8 to 10-week-old BALB/c mice were purchased from BioLasco, Taipei, Taiwan. Mice were grouped into three mice per group, and were injected intravenously with about 200 μL of 3.33 μM protein.

[7] = biological target: T2, human CD19 on human B lymphoma cell lines Ramos; test: Cell staining (FACS) binding to CD19-expressing Ramos cells; format: cell-based
Description: as §1
These molecular constructs were also analyzed for their ability to bind to human CD19 on human B lymphoma cell lines Ramos. The assay was performed using the protocol similar to the one used in cell binding assay with Raji cells. The staining of Ramos cells was analyzed by FACS (FACSCanto II; BD Biosciences) using FITC-conjugated goat anti-human IgG.Fc, where anti-CD19 IgG is used as a positive control. The anti-HER2 antibody (trastuzumab) was used as a negative control. […]

Molecule | binding to Raji cells (cell staining) [1] | penetration into tumors compared with normal organ ([2]; 24, 48 and 72 hours after i.v. injection, DyLight 680-labeled) | targeting effect to CD19-expressing tumors ([2]; mouse xenograft model) | targeting of CD19-expressing tumors (tissue-to-blood ratio biodistribution) [3] | stability while incubated with glutathione or HSA [4] | stability while incubated with glutathione or human serum albumin ([5]; SDS-PAGE) | intact molecular construct still in solution without retro-Michael addition product ([5]; HSA-treated group) | intact molecular construct still in solution without retro-Michael addition product ([5]; glutathione-treated group) | half-life [6] | binding to Ramos cells (cell staining) [7]
stabilized 2-chain (scFv α CD19)-Fc-MBM-1×2 DOTA bundles: 2-chain anti-CD19 scFv-Fc fusion with MBM-1 (ACPGHA), two Mal-Peptide 2-DOTA bundles conjugated, maleimide ring opened (conjugate) EIVLTQSPAIMSASPGERVTMTCSASSGVNYMHWYQQKPGTSPRRWIYDTSKLASGVPARFSGSGSGTDYSLTISSMEPEDAATYYCHQRGSYTFGGGTKLEIKRGSTSGSGKPGSGEGSTKGQVQLVQPGAEVVKPGASVKLSCKTSGYTFTSNWMHWVKQAPGQGLEWIGEIDPSDSYTNYNQNFQGKAKLTVDKSTSTAYMEVSSLRSDDTAVYYCARGSNPYYYAMDYWGQGTSVTVSSGGGASDKTHTCPPCPAPELLGGPSVFLFPPKPKDTLMISRTPEVTCVVVDVSHEDPEVKFNWYVDGVEVHNAKTKPREEQYNSTYRVVSVLTVLHQDWLNGKDYKCKVSNKALPAPIEKTISKAKGQPREPQVYTLPPSRDELTRNQVSLTCLVKGFYPSDIAVEWESNGQPENNYKTTPPVLDSDGSFFLYSKLTVDKSRWQQGNVFSCSVMHEALHNHYTQKSLSLSPGGGGACPGHA | bound to Raji cells substantially positively | significantly greater | satisfactory targeting effect | can target CD19-expressing tumors | satisfactory stability | satisfactory stability | approximately 90% | approximately 90% | ~193.5 h | bound to Ramos cells substantially positively
(scFv α CD19)-Fc-MBM-1 fusion protein: scFv specific for human CD19 (from RB4v1.2) fused to IgG1.Fc, GGGG linker and MBM-1 ACPGHA; SEQ ID NO: 13 (protein) EIVLTQSPAIMSASPGERVTMTCSASSGVNYMHWYQQKPGTSPRRWIYDTSKLASGVPARFSGSGSGTDYSLTISSMEPEDAATYYCHQRGSYTFGGGTKLEIKRGSTSGSGKPGSGEGSTKGQVQLVQPGAEVVKPGASVKLSCKTSGYTFTSNWMHWVKQAPGQGLEWIGEIDPSDSYTNYNQNFQGKAKLTVDKSTSTAYMEVSSLRSDDTAVYYCARGSNPYYYAMDYWGQGTSVTVSSGGGASDKTHTCPPCPAPELLGGPSVFLFPPKPKDTLMISRTPEVTCVVVDVSHEDPEVKFNWYVDGVEVHNAKTKPREEQYNSTYRVVSVLTVLHQDWLNGKDYKCKVSNKALPAPIEKTISKAKGQPREPQVYTLPPSRDELTRNQVSLTCLVKGFYPSDIAVEWESNGQPENNYKTTPPVLDSDGSFFLYSKLTVDKSRWQQGNVFSCSVMHEALHNHYTQKSLSLSPGGGGACPGHA |  |  |  |  |  |  |  |  | ~179.6 h | 
